Measured values as given in PMC10296842, “How Do Cancer-Related Mutations Affect the Oligomerisation State of the p53 Tetramerisation Domain?” (Current Issues in Molecular Biology, 2023).

Target: the molecule itself
Assay: native MS; peptide alone in 200 mM ammonium acetate, pH 7; high monomer concentration (80 uM WT and T329I, 100 uM R337H), cone voltage 40 V (raised to 80-120 V to dissociate the oligomers); positive ESI, TOF and ion mobility-TOF; WT and R337H not isotope-labelled

B1: 37TD-WT (wild-type p53 tetramerisation domain peptide, residues 320-356) (peptide, UniProt P04637 320-356, looked up)
chain: Ac-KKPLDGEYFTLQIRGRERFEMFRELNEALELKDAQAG-NH2
modifications: also: 13C-methyl Met340 in the isotope-labelled form
notes: p53 tetramerisation domain, residues 320-356 (37 amino acids); Made twice: with normal methionine (used in native MS and CD) and with 13C-methyl methionine (used in NMR); also called WT TD; p53TD; source: synthetic peptide (manual Fmoc/tBu SPPS), purified by semi-preparative HPLC
stoichiometry N: 4
